# Assay results: the nanobody polyreactivity screen of Harvey et al. (2022)
# Assay: yeast display, Sf9 membrane polyspecificity reagent, FACS + sequencing; frameworks hold sequencing errors
# Method in brief: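 Galactose-induced (36–48 hours) yeast carrying a synthetic nanobody display library were exposed to 10% biotinylated, detergent-solubilized Sf9 membrane reagent at 4 °C for 1 hour. FACS followed streptavidin microbead enrichment, using low and high (top ~1%) gates for expression (anti-HA) and reagent binding (streptavidin). Colony PCR, MiSeq 2 × 250 sequencing and CDR-length filtering followed. Labels for polyreactivity reflect the gate of origin.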
row,Sequence,polyreactivity (PSR sort gate)
1,QVQLVESGGGLVQAGGSLRLSCAASGFIFRRYAMGWYRQAPGKERELVAVIRSSGGSTYYADSVKGRFTISRDNAKNTVYLQMNSLKPEDTAVYYCAAVDARSGGYYWTLRYYYWGQGTQVTVSS,high polyreactivity
2,QVQLVESGGGLVQAGGSLRLSCAASGSIFDVNAMGWYRQAPGKERELVAAITSSGGSTYYADSVKGRFTISRDNAKNTVYLQMNSLKPVDTAVYYCAAYSLYTMYWGQGTQVTVSS,low polyreactivity
3,QVQLVESGGGLVQAGGSLRLSCAASGRIGTYAMGWYRQAPGKERELVAGIRSGGSTYYADSVKGRFTISRDNAKNTVYLQLNSLKPEDTAVYYCAADRGYRGATGKYDSWGQGTQVTVSS,high polyreactivity
4,QVQLQESVGGLVQACGSLRLSCAASGYIFSHQYMGWYRQAPGKERELVASISPGATTNYADSVKGRFTISRDNAKNTVYLQMNSLKPEDTAVYYYAVYQILDRRLSYWGQGTQVTVSC,high polyreactivity
5,QVQLVESGGGLVQAGGSLRLSCAASGSTFPRNAMGWYRQAPGKERELVAVITGSGGSTYYADSVKGRFTISRDNAKNTVYLQMNSLKPEDTAVYYCNARPTRRTRYDSWGQGTQVTVSS,high polyreactivity
6,QVQLVESGGGLVQEGGSLRLSCSASGRIFGSYAMGWNRPATGKERELVAAINSSGGRTYYADSVKGRFTISRDNAKNTVYLQMNSLKPDVTAVYYCNARRVYSQRYDYWGQGTQVTVSS,high polyreactivity
7,QVQLVESGGGLVQAGGSLRLSCAASGSIFGRNAMGWYRQAPGKERELVAAISTSGGSTYYADSVKGRFTISRDNAKNTVYLQMNSLKPEDTAVYYCNAEQYTQLDVNLYDYWGQGTQVTVSS,low polyreactivity
8,QVHLVESGGGLVQAGGSLRLSCAASGRIYRVNGMGWYRQAPGTERELVAAIRRSGGSTYYADSVKGRFTISRDIAKNTVYLQMNSLKPEDTAVYYCAARVRQSSYTRYDSWGQGTQVTVSS,high polyreactivity
9,QVQLVESGGGLVQAGGSLRLSCAASGRIFDGNVMGWYRQAPGKERELVAAISRSGVRTYYADSVKGRFTISRDNAKKTVYLQMNSLKPEDTAVYYCAADVYRQFYPFKSDYWGQGTQVTVSS,high polyreactivity
10,QVQLVESGGGLVQAGGSLRLSCAASGFIFPRYAMGWSRQRPGKESELVAAISRSGGITRYADSVKGRFTISRDNAKNTVYLQRNSLKPEDTAVYYCAAYIQGWVTAEWVRDDYWGKGTQVTVSS,high polyreactivity
11,QFQLVESGGGLVQAGGSLRLSCAASGSIFYYNAMGWYRQAPGKEPELVAAINSGGTTYYADSVKGRFTISRDNAKNTVYVLMNSLKPEDTAVYYCAARTTRRSRYKYDYWGQGTQVSVSS,high polyreactivity
12,QVQLVESGGGLVQAGGSLRLSCAASGSIFDIYGMGWYRQAPGKERELVASISGGAGSTNYADSVKGRFTISRDNAKNTVYLQMNSLNPEDTAVYYCAAEVYVPDYFQHKFDVEYEYWGQGTQVTVSS,low polyreactivity
13,QVQLVESGGGLVQAGGSLRLSCAASGRILYYYAMGWYRQAPGKERELVAGITTDDSTNYADSVKGRFTISRDNAKNTVYFQMNSLKPEDTAVYYCAAKYVHGEYDYWGQGTQVTVSS,low polyreactivity
14,QVQLVESGGGLVQAGGSLRLSCAASGRIFQTYTMGWYRQAPGKERELVARITGGDSTYYADSVKGRFTISRDNAKITVYLQMNSLKPEDTAVYYCAAEVWSYWGTFNYWGQGTQVTVSS,low polyreactivity
15,QVQLGESGGGLVLAGGSLRLSCAASGYDMGWYRHAPGKESELVAAISRGGSTSYADSVKGRFTISRDNAKNTVYLQMNSLKPEDTAVYYCAARYGSYRVGYDYWGQGTQVTVSS,low polyreactivity
16,QVQLVESGGGLVHAGGSLLLSCDATGISLVRYSMGWYRQAPGKELELVAAISGSGGSTRYADSVKGRFTISRDNAKNTVYLQMNSMIPEDSAVYYCAARGAGPLDNHYSWGQGKQVTVSS,high polyreactivity
17,QFQLVESWGGLVPPGGILRLSCAASRSTFRYYPIGRYRQAPGHERELVAVISSSGSRTNYADSVKGRFTISRDTAKNTVYLQLNSLKPEDSAVYYCGAVSSYRYYADYYWGQGTQVTVSS,high polyreactivity
18,QVQLVESGGGLVQAGGSLRLSCAASGFIFAWYAMGWYRQAPGKERELVADITSGGDTSYADSVKGRFTISLDNAKNTVYLQMNSLKPEDTAVYYCAAVWEPWNIRLVLTAVDYWGQGTQVTVSS,low polyreactivity
19,QVQLVESGGGLVQAGGSLRLSCAASGGIFTAYTIGWYRQAPGKERELVATITRGGSTNYADSVKGRFTISRDNAMNTVYLQMNSLKPEDTAVYYCNARVQRRGVQYYYWGHGTQVTVSS,high polyreactivity
20,QVQLVESGGGLVQAGGSLRLSCAASGITFRYYAMGRYRQAPGKERELVAAITRSGSTTYADSVKGRFTISRDNAKNTVYLQMNSLKPVDTAVYYCAVDYYYLTGGVDYWGQGTQVTVSS,low polyreactivity
21,QVQLVESGGGIVQAGGSLRLSSAASGINFRYYAMGSSRPAPGKDRELVAVKSRDGTTYYADSVKGRFTISRDNAKNTVYLPMNSLKAADTAVYYCAKKAWVIYNRKFSSGYDYWGQGTQVNVSS,low polyreactivity
22,QVQLVESGGCLVQAGGSLRLSCAASGSIFVYYAMGWYRQSPGKERELVAAISWSGGSTRYADSVKGRFTISRDNAKNTVYLQMNSLKPEDTAVYYCAAKRLGGGYWGQGTQVTVSS,high polyreactivity

row,Sequence,polyreactivity (PSR sort gate)
1,QVQLVESGGGLVQAGGSLRLRCAASGRIFPLYAMGWYRQAPGKERELVATISYSGSSTYYADSVKGRFTISRDYAKNSVYLQMNSLKPEDTAVFYFNADAFGPPGVEYYYRGQGTQVTVSS,low polyreactivity
2,QVQLVESGGGFVQAGGSLRLTCAASALTFQYNAMGWYRQAPGKETELVAAISRSGGRTYYADSVKGRFTISRDNAKNTVYLQMNSLKPEDTAVYYCARRGGVVYSSGYNYLGQGTQVTVSS,high polyreactivity
3,QVQLVESGGGLVQAGGSLRLSCAASGSTFILYAMGWYRQAPGKERELVAAITTSGGSTYYADSVKGRFTISRDNAKNTVYLQMKSLKPEDTAVYYCNGGLSVTHGTSIPFRNYEYWGQGTQVTVSS,low polyreactivity
4,QGQLVESGGGLVQAGGSLRLSCAASGRIFVIYAMGWYRQAPGKERELVAAISSRGGTTYYADSVKGRFTISRDNAKNTVYLQMNSLKPEDTAGYYCNVARFYHIYDYWGQGTHVTVSS,high polyreactivity
5,QVQLVESGGGLDQAGGSLRLSCAASGFIFFRYAMGWYRQAPRKEREMVAAISSSGGSTYYADSVKGRFTISRDNAKNTVYLQMNSLKPEDTAVYFCAAPRYPIFVGLGKDYWGQGTQVTVSS,high polyreactivity
6,QVQLVESGGGLVQAGGSLRLSCAAPGSTIRANAMGWYRQAPGKEMELVAAITKNGGSTYYADSVKGRFTISRDNAKNTVYLQMNSLKPEDTAVYYCAARRSSRRPPYYYWGQGTQVTVSS,high polyreactivity
7,QVQLVESGGGLVQAGGSIRLSCAASGNIFVSYAMGWYRQAPAKERELVAAISKSGGSTYYADSVKGRFTISRDNAKNTVYLQMNSLKPEDTAVYYCAARWYNRVKYQKYNYWGQGTQVTVSS,high polyreactivity
8,QVQLVESGGGLVQAGGSLRLSCAASGRIFYGYAMGWYRQAPGKERELVAAISSGGITYYADSVKGRFTISRDNAKNTVYLQMNSLKPEDTAVYYCAAEPWYKFDYDYWGQGTQVTVSS,low polyreactivity
9,KVQLVESGGGLVQAGGSLRLSCAASGSIFYYYAMGWYRQAPGKERELVAAISERGAYVLRRPVKGRFTISRDNAKNTVYLQMNSLKPEDTAVYYCAVGFNFQGWRYDYWGQGTQVNVSS,high polyreactivity
10,QVQLVESGGGLVQAGGSLRLSCAASGSIFFRNAMGWYRQAPGKERELVAAITSGGGTYYADSVKGRLTISRDNAKNTVYLQMNSLKPEDTAVYYCAVVRGSRAIKHYYWGQGTQVTVSS,high polyreactivity
11,QVQLVESGGGLVQAGGSLRVSCAASGLIFYRYAMGWYRQAPGKERELVAAITTRGGSTYYADSVKGRFTISRDNAKITVYLQMNSLKPEDTAVYYCATYFRAKGYTGRYYYWGQGTQVTVSS,high polyreactivity
12,QVQLVESGGGLVQAGGSLRLSCAASGRTFARYAMGWYRQAPGKERELVAAISSGGSTYYADSVKGRFTISRDNAKNTVYLQMNSLKPEDTAVYYCAAEWHYIYAYDYWGQGTQVTVSS,low polyreactivity
13,QVQLVESGGGLVQAGGSLRLSCAASGSIFEWYAMGWYRQEPGKERELVADITYNGGSTYYADSVKGRFTISRDNAKNTVYLQMNSLKPEDSAVYYCNKDIERYVSIYDSWGQGTQVTVSS,low polyreactivity
14,QVQLVESGGGLVQAGGSLRLSSAPSGSTFPGYAMGWYRQAPGKERQLVAAITGRGTSTYYADSVKGRFTISRDNAKNTVYLQMNSLKPEDTAVYYCAPYATFPTRYYYWGQGTQVTVSS,high polyreactivity
15,QVQLVESGGGLVQAGGSLRLSCAASGSIFNPYAMGWYRQAPGKERELVAAISSTGSTYYADSVKGRFTISRDNAKNTVYLQMNSLKPEDTAVYYCAADWYWYWFSTYDYWGQGTQVTVSS,low polyreactivity
16,QVQLVESGVGLVQAGGSLRLSCAASGITFAGNAMGWYRQAPGKERELVATITSDGNTNYADSVKGRFTISRDNAKNTVYLQMNSLKPEDTAVYYCNAEVIVGTDEYDYWGQGTQVTVSS,low polyreactivity
17,QVQLVESGGGLVQAGGSLRLSCAASGSTFVGKVMGWYRQAPGKERELVAAISRGGSTYYADSVKGRFTISRDNAKNTVYLQMNSLKPEDTAVYYCAADVRPWGNYHAQYDYWGQGTQVTVSS,low polyreactivity
18,QVQLVESGGGLVQAGGSLRLSCAASGNTFLWYAMGWYRQAPGKEREFVAAIRRSGASTYYADSVKGRFTISRDNAKNTVYLQMNSLKPEDTAVYYCAAKFVYWSGAVYTRYDYWGQGTQVTVSS,high polyreactivity
19,QVQLVESGGGLVQAGGSLSLSFAASGRTFGYYDMGRYRQAPGKEREFVAAITWSGGNTYADSVKGRFTISRDNAKNTVYLQMNSLKPEDTAVYYCNAVVRAYYTSIWVPRYDYWGQATQVTVSS,high polyreactivity
20,QVQLVESGGGIVQAGGSLRLSSAASGSIIFYYAMGWYRQPRGKEREFVAAITRSGVRTYYADSVKGRFTISRDNAKNTVYLQMNSLKPEDTAVYYCNDDYGFYRPVLMGFWGQGTQVTVSS,low polyreactivity
21,QVQLVESGGGLVQAGGSLRLSCAASGRTFPGYAMGWYRQAPGKERELVASITSRGGITYYADSVKGRFTISRDNAKNTVYLQMNSLKPEDTAVYYCATDFAVTKMEYWGQGTQVTVSS,low polyreactivity
